Where two headings read alike, the source gives them in different places.
T1: Hendra virus glycoprotein G (Hendra virus (HeV), UniProt O89343 71-604)
T1 sequence: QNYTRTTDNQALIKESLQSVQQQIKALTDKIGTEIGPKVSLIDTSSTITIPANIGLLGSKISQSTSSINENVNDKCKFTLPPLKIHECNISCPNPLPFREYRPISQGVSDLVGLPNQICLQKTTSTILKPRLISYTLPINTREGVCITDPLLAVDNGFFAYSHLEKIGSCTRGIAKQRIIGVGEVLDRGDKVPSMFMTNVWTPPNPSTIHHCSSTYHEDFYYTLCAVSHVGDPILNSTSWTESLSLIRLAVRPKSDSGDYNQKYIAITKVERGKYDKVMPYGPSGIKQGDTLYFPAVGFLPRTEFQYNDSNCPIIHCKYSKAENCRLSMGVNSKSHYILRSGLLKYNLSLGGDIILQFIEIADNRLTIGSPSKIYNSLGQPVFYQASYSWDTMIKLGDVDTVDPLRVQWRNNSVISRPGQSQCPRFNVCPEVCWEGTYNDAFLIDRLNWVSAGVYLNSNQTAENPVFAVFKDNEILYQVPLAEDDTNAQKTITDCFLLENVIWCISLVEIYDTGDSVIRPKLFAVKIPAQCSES

T2: Nipah virus Malaysia strain glycoprotein G (Nipah virus, Malaysia strain (NiV-MY), UniProt Q9IH62 71-602)
T2 sequence: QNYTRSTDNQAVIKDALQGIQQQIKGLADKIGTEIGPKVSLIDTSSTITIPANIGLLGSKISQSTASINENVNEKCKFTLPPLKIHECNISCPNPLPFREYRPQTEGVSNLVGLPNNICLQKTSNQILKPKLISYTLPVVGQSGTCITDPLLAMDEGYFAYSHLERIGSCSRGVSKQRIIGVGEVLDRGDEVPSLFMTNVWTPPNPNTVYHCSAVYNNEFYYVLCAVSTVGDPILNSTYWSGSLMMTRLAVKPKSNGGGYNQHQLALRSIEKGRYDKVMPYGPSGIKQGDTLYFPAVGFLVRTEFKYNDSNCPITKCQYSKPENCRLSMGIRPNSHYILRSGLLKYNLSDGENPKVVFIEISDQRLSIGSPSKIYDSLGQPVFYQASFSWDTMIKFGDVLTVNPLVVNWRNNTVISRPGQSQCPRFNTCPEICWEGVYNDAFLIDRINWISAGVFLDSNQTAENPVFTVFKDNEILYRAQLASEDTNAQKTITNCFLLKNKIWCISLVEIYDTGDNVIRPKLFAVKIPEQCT

B1: 1B6 (antibody, V domains shown)
VH: VQLQESGPGPVKPSETLSLTCTVSGGSMSRGYDWNWIRQPPGKGLEWIGYIGDDGGRSNYNPSLKSRVTISKDSSKNQFSLKLGSVSAADTAVYYCARALRAIWYNSGWFYNSLDVWGRGVLVTVSS
VL: DIVLTQSPASLAVSPGQRATITCRASEGVSVFGRDLIHWYQQKPGQPPKLLIYQTSNRDTGVPARFSGSGSGTDFTLTINPVEADDAADYYCLQSKNSYSFGQGTKVEIKT
B2: 1E5 (antibody, V domains shown)
VH: VQLQESGPGVVKPSETLSLTCAVSGGSISDTYRWSWIRQPPGKGLEWIGYIYGSATSTYYNPSLSSRVTISKDMSKNQFSLNLNSVTAADTAVYYCARDYQYYYSGSYPTPHNWFDVWGPGVLVTVSS
VL: DIQMTQSPSSLSASVGDRVTITCRASQGIIDYLSWYQQKPGKAPKLLISTASNLESGVPSRFSGSGSGTEFTLTISSLQPEDFATYSCLQGYTTPYTFGQGTKVEIKT
B3: 2A4 (antibody, V domains shown)
VH: QVQLQESGPGLVKPSETLSLTCPVSGASISSHWWTWIRQPPGKGLEWIGEIHGNSGSTNYNPSLKSRVTISKDASKNHFSLKLSSVTAADTAVYYCARDGHLGILVVFATSRFDVWGPGVLVTVSS
VL: DIQMTQSPSSLSASVGDTVTITCQASQGIANNLNWYQQKPGKAPKLLIYRASSLQSGIPSRFSGSGSGTDYTLTISSLQPEDFATYYCQQGYTYPRTFGQGTKVEIKT
B4: 2E7 (antibody, V domains shown)
VH: VQLQESGPGLVKPSETLSLTCSVSGGSISISNWWSWIRQSPGKGLEWIGYIYGSSGSTLYNPSLKSRVSISTDTSKNQFSLKLRSVTAADTAVYYCASPSIAATGDFDYWGQGVLVTVSS
VL: QSVLTQPPSASGAPGQSVTISCSGSSSNIGGNNVYWYQQLPGTAPKLLIYSSNQRPSGVPDRFSGSKSGTSASLAITGLRSEDEADYFCAVWDDSLGSPFFGGGTRLTVLR
notes: copies: 2 + 2

Tests used:
[1] = target: T1, Hendra virus glycoprotein G; assay: ELISA, G protein coated at 1 µg/mL, antibody 1:3 dilutions from 20 µg/mL
[2] = target: T2, Nipah virus Malaysia strain …; assay: as above
[3] = target: T1, Hendra virus glycoprotein G; assay: cell-based or functional assay
[4] = target: T2, Nipah virus Malaysia strain …; assay: cell-based or functional assay
[5] = target: Nipah virus Bangladesh strain glycoprotein G (Nipah virus, Bangladesh strain (NiV-BD)); assay: cell-based or functional assay
[6] = target: Nipah virus Bangladesh strain glycoprotein G (Nipah virus, Bangladesh strain (NiV-BD)); assay: ELISA, G protein coated at 1 µg/mL, antibody 1:3 dilutions from 20 µg/mL
[7] = target: Nipah virus Bangladesh strain glycoprotein G (Nipah virus, Bangladesh strain (NiV-BD))
[8] = target: Nipah virus Bangladesh strain glycoprotein G (Nipah virus, Bangladesh strain (NiV-BD)); remark: listed apart in the source
[9] = target: T2, Nipah virus Malaysia strain …
[10] = target: T1, Hendra virus glycoprotein G
[11] = target: T2, Nipah virus Malaysia strain …; remark: listed apart in the source
[12] = target: Nipah virus Bangladesh strain glycoprotein G (Nipah virus, Bangladesh strain (NiV-BD)); remark: listed apart in the source
[13] = target: T1, Hendra virus glycoprotein G; remark: listed apart in the source
[14] = target: T2, Nipah virus Malaysia strain …; remark: listed apart in the source

| Binder | EC50 [1] [µg/mL] | EC50 [2] [µg/mL] | IC50, neutralisation of HeV pseudovirus (HIV backbone, luciferase, 293T cells) [3] [ng/mL] | percent neutralisation of HeV pseudovirus at 1 µg/mL [3] [%] | percent neutralisation of NiV-MY pseudovirus at 1 µg/mL [4] [%] | percent neutralisation of NiV-BD pseudovirus at 1 µg/mL [5] [%] | EC50 [6] [ng/mL] | Kd [7] [nM] | IC50 (read off the curve) [8] [µg/mL] | IC50 (read off the curve) [9] [µg/mL] | Kd [10] [nM] | Kd [11] [pM] | IC50 (read off the curve) [12] [µg/mL] | IC50 (read off the curve) [13] [µg/mL] | IC50 (read off the curve) [14] [µg/mL] |
| --- | --- | --- | --- | --- | --- | --- | --- | --- | --- | --- | --- | --- | --- | --- | --- |
| B1 | 0.0529 | 0.0639 | 16.3 | ~100 | ~100 | 100 | 28.4 | – | – | – | – | – | – | – | – |
| B2 | 0.00034 | 0.00085 | 5.74 | ~100 | ~100 | 100 | 2.6 | 0.171 | 0.06 | ~0.1 | 0.785 | < 1 | 0.04 | ~0.2 | ~0.06 |
| B3 | 0.00737 | 0.0112 | 29 | ~100 | ~100 | 100 | 4.5 | – | – | – | – | – | – | – | – |
| B4 | 0.0701 | 0.0267 | – | – | – | – | – | – | – | – | – | – | – | – | – |
